Data published in the supplement of paper PMC10126150.
± gives the standard deviation of the averaged measurements.

System: ATP
Assay: switch fluorescence ratio, 500 uM ATP over buffer (Cy3 cluster intensity, sum of 5 cycles each) (fold (ratio)); higher = stronger signal-on switching upon ATP binding; sequences stand for … in TCGTCGGCAGCGTCAGATGTGTATAAGAGACAGTTTTTTTTTTTTTTTTTTTTTTTTT…TC
Details: aptamer strand: ATP DNA aptamer (quencher-CACCTGGGGGAGTATTGCGGAGGAAGG + anchor), 100 nM annealed; ATP concentration: 500 uM
Procedure, shortened: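 The fluorescence ratio divides summed target-cycle Cy3 intensity by summed buffer-cycle Cy3 intensity for each cluster and is averaged per switch-domain sequence. Cy3-labelled switching-strand clusters on a modified Illumina MiSeq flow-cell were annealed to 100 nM quencher-labelled ATP aptamer, then imaged in selection buffer and again after 15 min with 500 uM ATP at 22 °C. Five such cycles were run, with NaOH stripping and re-annealing between them, and clusters outside 100-1000 RFU were excluded.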
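Further: ATP exposure 15 min at 22 °C before imaging.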

Work on ACCTAGTTTT yielded a switch fluorescence ratio of 1.011 ± 0.0078.

TGCTTCATAA showed a switch fluorescence ratio of 1.01 ± 0.048.

ACTGGGGGTT showed a switch fluorescence ratio of 0.994 ± 0.029.

In the case of GACCATCTGT, the switch fluorescence ratio is reported as 1.02 ± 0.024.

Sequence CCGGTGGGGA has a switch fluorescence ratio of 1.12 ± 0.064.

TGGAAGGTTA was tested, and the switch fluorescence ratio was 1.01 ± 0.025.

With GGTTTAAATT the switch fluorescence ratio was 1 ± 0.018.

With GAAAGGGCTC the switch fluorescence ratio was 1.09 ± 0.069.

CATCGACTGG gave a switch fluorescence ratio of 0.965 ± 0.017.

AATATGTCTG showed a switch fluorescence ratio of 0.937 ± 0.06.

For GACATTGTTG, the switch fluorescence ratio was 1.04 ± 0.055.

AATGTTGAAG gave a switch fluorescence ratio of 0.987 ± 0.034.

For TGAGTACAGC, the switch fluorescence ratio was 1.03 ± 0.092.

ACGTGGAAGC was tested, and the switch fluorescence ratio was 1.04 ± 0.043.

In the case of GCGGGCAGGC, the switch fluorescence ratio is reported as 0.99818 ± 0.00079.

Sequence GGTGGTGGGC has a switch fluorescence ratio of 0.954 ± 0.01.

For CACTTTGGTT, the switch fluorescence ratio was 1.02 ± 0.011.

Sequence GCTTTAATTT has a switch fluorescence ratio of 1.07 ± 0.045.

With ACAGGAGGAA the switch fluorescence ratio was 1.01 ± 0.046.

GGACCCTAAC showed a switch fluorescence ratio of 1.08 ± 0.062.

In the case of CTGCGGTAAA, the switch fluorescence ratio is reported as 0.96953 ± 0.00082.

For ATAGTTAAAC, the switch fluorescence ratio was 1.01 ± 0.012.

Sequence CTGAGAGTAT has a switch fluorescence ratio of 1 ± 0.025.

Work on AAGGGTGGGA yielded a switch fluorescence ratio of 1.01 ± 0.039.

TAGCATGCGG showed a switch fluorescence ratio of 1.01 ± 0.019.

With TCCCGCTTGT the switch fluorescence ratio was 1.17 ± 0.028.

In the case of CTGAGGGAGA, the switch fluorescence ratio is reported as 1.04 ± 0.03.

Sequence TGTATGAACT has a switch fluorescence ratio of 0.98027 ± 3.7e-05.

For TAAAACGATC, the switch fluorescence ratio was 0.966 ± 0.036.

CGTTTAGTCA showed a switch fluorescence ratio of 1.01 ± 0.023.

TTCCGTATGA gave a switch fluorescence ratio of 1.05 ± 0.043.

For TTAAGCGAAG, the switch fluorescence ratio was 0.953 ± 0.029.

GCACTCGGGA showed a switch fluorescence ratio of 1.03 ± 0.027.

In the case of ATTTTTTCGT, the switch fluorescence ratio is reported as 1.04 ± 0.036.

Work on AGGGGAGGGT yielded a switch fluorescence ratio of 1 ± 0.015.

TTAAAGGCCC gave a switch fluorescence ratio of 1.0667 ± 4.6e-05.

Sequence ACAAATTGCC has a switch fluorescence ratio of 1.031 ± 0.0017.

Sequence TCTATAGTAA has a switch fluorescence ratio of 1.057 ± 0.0087.

With TACGGGACGG the switch fluorescence ratio was 1.07 ± 0.023.

In the case of TTGGTCAATC, the switch fluorescence ratio is reported as 1.04 ± 0.024.

For ATATAATTTG, the switch fluorescence ratio was 1.04 ± 0.055.

In the case of GGTAGGGGTT, the switch fluorescence ratio is reported as 1 ± 0.053.

Work on AGTGGGGATC yielded a switch fluorescence ratio of 1.03 ± 0.035.

For GCCTATTTTG, the switch fluorescence ratio was 0.962 ± 0.07.

CGTTAGATT was tested, and the switch fluorescence ratio was 0.967 ± 0.011.

For CGGTATAGCA, the switch fluorescence ratio was 0.971 ± 0.027.

With TAATCAGTAG the switch fluorescence ratio was 1.02 ± 0.015.

In the case of GAGGCAGTTG, the switch fluorescence ratio is reported as 0.993 ± 0.076.

TAGATTGATG gave a switch fluorescence ratio of 1.0281 ± 0.00078.

TATGAAAGTG gave a switch fluorescence ratio of 0.983 ± 0.035.

TGGGGATTAG showed a switch fluorescence ratio of 1.01 ± 0.033.

GTTTTTCCAT gave a switch fluorescence ratio of 1 ± 0.024.

TTCGGAGTTA gave a switch fluorescence ratio of 1.09 ± 0.12.

For AAGGGATACG, the switch fluorescence ratio was 1.02 ± 0.015.

In the case of GGGGAACGTT, the switch fluorescence ratio is reported as 0.947 ± 0.049.

CCAGTAATTT gave a switch fluorescence ratio of 1.038 ± 0.0029.

TCCAGGAGTG gave a switch fluorescence ratio of 1.15 ± 0.019.

With TAGGAGGGTT the switch fluorescence ratio was 0.987 ± 0.026.

For ATAGTCGCGC, the switch fluorescence ratio was 0.993 ± 0.058.

Work on GAGATTTAGC yielded a switch fluorescence ratio of 1.03 ± 0.035.

For TATTTGGTTG, the switch fluorescence ratio was 0.995 ± 0.018.

For ATGTTCTCCG, the switch fluorescence ratio was 1.14 ± 0.035.

GGTGGATTGG was tested, and the switch fluorescence ratio was 1.07 ± 0.1.

GGGATATGAA showed a switch fluorescence ratio of 0.992 ± 0.018.

Sequence CAGAACGTTG has a switch fluorescence ratio of 0.983 ± 0.016.

TTTTCCCATT showed a switch fluorescence ratio of 1.02 ± 0.075.

With GAAGCACGCC the switch fluorescence ratio was 1.45 ± 0.0069.

In the case of TACTCGTGGT, the switch fluorescence ratio is reported as 1 ± 0.064.

CTATGGATAC showed a switch fluorescence ratio of 1.61 ± 0.18.

In the case of GTTTACCGGA, the switch fluorescence ratio is reported as 1.05 ± 0.08.

With TCGGATGTGG the switch fluorescence ratio was 1.01 ± 0.056.

For TTTGCTCGGG, the switch fluorescence ratio was 1.003 ± 0.002.

TTCGTACGGG gave a switch fluorescence ratio of 1.03 ± 0.021.

With TCGTTTATTT the switch fluorescence ratio was 1.02 ± 0.014.

Work on TAAAGTTTAG yielded a switch fluorescence ratio of 1.02 ± 0.015.

Work on TGATGAGGGT yielded a switch fluorescence ratio of 1.02 ± 0.02.

Work on GGGGGTACCG yielded a switch fluorescence ratio of 0.977 ± 0.021.

Sequence AGGAACATTA has a switch fluorescence ratio of 1.01 ± 0.054.

AATCTAAGGT gave a switch fluorescence ratio of 0.983 ± 0.064.

AATGATGTGG was tested, and the switch fluorescence ratio was 0.998 ± 0.021.

Work on ACTCTAAAAA yielded a switch fluorescence ratio of 1.05 ± 0.012.

With CTTCTTTCTC the switch fluorescence ratio was 1.051 ± 0.0084.

AATAAAGAAT was tested, and the switch fluorescence ratio was 0.973 ± 0.019.

For TTCAAGCAAG, the switch fluorescence ratio was 1.15 ± 0.015.

For CCAACATGAT, the switch fluorescence ratio was 1.017 ± 0.007.

In the case of GCTCTACTGG, the switch fluorescence ratio is reported as 1.024 ± 0.0021.

Work on GTGTGCAGTG yielded a switch fluorescence ratio of 0.954 ± 0.01.

Work on AAAGTGTTGC yielded a switch fluorescence ratio of 1.05 ± 0.042.

Sequence CTCAAAAACA has a switch fluorescence ratio of 1.02 ± 0.028.

TGTATTGTGG showed a switch fluorescence ratio of 0.987 ± 0.021.

Work on TAAAGAAAGA yielded a switch fluorescence ratio of 1.1 ± 0.23.

TTAGACGATT gave a switch fluorescence ratio of 0.998 ± 0.025.

Sequence GCCTTGATCT has a switch fluorescence ratio of 0.996 ± 0.016.

With GACTTTGAAT the switch fluorescence ratio was 1.014 ± 0.0089.

In the case of ACGTGACGGG, the switch fluorescence ratio is reported as 1.07 ± 0.029.

AAAAGTAATT was tested, and the switch fluorescence ratio was 0.985 ± 0.021.

Work on GCATCGTAGA yielded a switch fluorescence ratio of 1.07 ± 0.015.

ACGTAGTTTC was tested, and the switch fluorescence ratio was 1.05 ± 0.023.

GAGGGGTGCA showed a switch fluorescence ratio of 0.992 ± 0.015.

Work on TTTCGGGACG yielded a switch fluorescence ratio of 0.987 ± 0.035.

Work on TTACGAGTGG yielded a switch fluorescence ratio of 1.02 ± 0.025.

GATGTCCCAG was tested, and the switch fluorescence ratio was 1 ± 0.017.

For GGGTCTTTGT, the switch fluorescence ratio was 0.981 ± 0.026.

Work on TTAATGGCGA yielded a switch fluorescence ratio of 0.986 ± 0.033.

Sequence TCAAGTGGGG has a switch fluorescence ratio of 1.01 ± 0.053.

For AGATGAAGTG, the switch fluorescence ratio was 0.99 ± 0.019.

CATAAAGGAT showed a switch fluorescence ratio of 0.97 ± 0.011.

Work on TTAAGTGTGA yielded a switch fluorescence ratio of 0.982 ± 0.013.

CCGCCCTATT gave a switch fluorescence ratio of 1.4 ± 0.024.

Sequence CCGGGGGTCA has a switch fluorescence ratio of 1.01 ± 0.039.

Work on TTTTCGCTAT yielded a switch fluorescence ratio of 2.29 ± 1.6.

TTCTTCACGG was tested, and the switch fluorescence ratio was 1.04 ± 0.035.

In the case of GCCGGGGAGT, the switch fluorescence ratio is reported as 0.989 ± 0.027.

With TATTGCCGCA the switch fluorescence ratio was 1.057 ± 0.0085.

With GGGAAAATTA the switch fluorescence ratio was 0.997 ± 0.019.

GGGGGATCTT showed a switch fluorescence ratio of 1 ± 0.03.

Sequence ATGGTCGGGG has a switch fluorescence ratio of 0.995 ± 0.042.

GTAATTAGAT was tested, and the switch fluorescence ratio was 0.969 ± 0.022.

Sequence TTTACGGCGT has a switch fluorescence ratio of 0.994 ± 0.017.

With CTATGGGTCC the switch fluorescence ratio was 1.02 ± 0.026.

In the case of TCTTGGTTTC, the switch fluorescence ratio is reported as 0.997 ± 0.013.

GACGTTCTTG was tested, and the switch fluorescence ratio was 0.9862 ± 0.0027.

For AGGAAGGCA, the switch fluorescence ratio was 0.975 ± 0.05.

ATTTAGTGAC was tested, and the switch fluorescence ratio was 1.02 ± 0.051.

Sequence GATGGTAACT has a switch fluorescence ratio of 0.984 ± 0.017.

ACGCTTGTGC gave a switch fluorescence ratio of 1.08 ± 0.042.

ATGAAAATCC gave a switch fluorescence ratio of 1.03 ± 0.021.

GCATAGCGCC showed a switch fluorescence ratio of 1.04 ± 0.013.

TTTTATATAC was tested, and the switch fluorescence ratio was 1.14 ± 0.076.

Work on CTCGGGTATG yielded a switch fluorescence ratio of 0.9791 ± 0.0043.

Work on TATGGGGGTG yielded a switch fluorescence ratio of 1.05 ± 0.043.

Sequence ATGTATGTGG has a switch fluorescence ratio of 0.987 ± 0.049.

TCTGCCCCCC was tested, and the switch fluorescence ratio was 1.12 ± 0.042.

With AATCTCATAG the switch fluorescence ratio was 1.01 ± 0.012.

GCCGGGTTGC gave a switch fluorescence ratio of 1.01 ± 0.013.

For CTAGGATTGA, the switch fluorescence ratio was 0.992 ± 0.041.

For GCCAGTCTTT, the switch fluorescence ratio was 1 ± 0.012.

TTTACAGCTT gave a switch fluorescence ratio of 0.987 ± 0.027.

Sequence CTTTGTAGTA has a switch fluorescence ratio of 0.977 ± 0.034.

Sequence CGACTGAGGT has a switch fluorescence ratio of 1.03 ± 0.029.

Work on AGGGGTTAGG yielded a switch fluorescence ratio of 0.992 ± 0.021.

CTGAAGGCCC gave a switch fluorescence ratio of 1.02 ± 0.019.

For CCTCTGATTT, the switch fluorescence ratio was 1.47 ± 0.3.

ATAAGTGGTT showed a switch fluorescence ratio of 0.995 ± 0.026.

Sequence TTTGGGTCTC has a switch fluorescence ratio of 0.998 ± 0.019.

GCTTCGGGGC showed a switch fluorescence ratio of 1.01 ± 0.016.

With AATAGCTAAA the switch fluorescence ratio was 0.999 ± 0.03.

TTCGAAGTTG gave a switch fluorescence ratio of 0.999 ± 0.034.

In the case of CTAGGGGCTG, the switch fluorescence ratio is reported as 0.946 ± 0.025.

Sequence GGGTGACCAA has a switch fluorescence ratio of 0.969 ± 0.013.

For TTTTTTTCTC, the switch fluorescence ratio was 0.992 ± 0.056.

Sequence CGAGATACTC has a switch fluorescence ratio of 1.86 ± 0.17.

Work on TTCAATGTTT yielded a switch fluorescence ratio of 0.978 ± 0.049.

With ACGCGATATG the switch fluorescence ratio was 1.253 ± 0.01.

In the case of TAGGTAGGCT, the switch fluorescence ratio is reported as 0.974 ± 0.025.

For ATGATAGTAA, the switch fluorescence ratio was 1.009 ± 0.0027.

CCCAGGCGGA gave a switch fluorescence ratio of 1.65 ± 0.78.
